B1: calcium/calmodulin-dependent serine protein kinase (CASK) (natural protein)
chain: MADDDVLFEDVYELCEVIGKGPFSVVRRCINRETGQQFAVKIVDVAKFTSSPGLSTEDLKREASICHMLKHPHIVELLETYSSDGMLYMVFEFMDGADLCFEIVKRADAGFVYSEAVASHYMRQILEALRYCHDNNIIHRDVKPHCVLLASKENSAPVKLGGFGVAIQLGESGLVAGGRVGTPHFMAPEVVKREPYGKPVDVWGCGVILFILLSGCLPFYGTKERLFEGIIKGKYKMNPRQWSHISESAKDLVRRMLMLDPAERITVYEALNHPWLKERDRYAYKIHLPETVEQLRKFNARRKLKGAVLAAVSSHKFNSFYGDPPEELPDFSEDPTSSGLLAAERAVSQVLDSLEEIHALTDCSEKDLDFLHSVFQDQHLHTLLDLYDKINTKSSPQIRNPPSDAVQRAKEVLEEISCYPENNDAKELKRILTQPHFMALLQTHDVVAHEVYSDEALRVTPPPTSPYLNGDSPESANGDMDMENVTRVRLVQFQKNTDEPMGITLKMNELNHCIVARIMHGGMIHRQGTLHVGDEIREINGISVANQTVEQLQKMLREMRGSITFKIVPSYRTQSSSCERDSPSTSRQSPANGHSSTNNSVSDLPSTTQPKGRQIYVRAQFEYDPAKDDLIPCKEAGIRFRVGDIIQIISKDDHNWWQGKLENSKNGTAGLIPSPELQEWRVACIAMEKTKQEQQASCTWFGKKKKQYKDKYLAKHNAVFDQLDLVTYEEVVKLPAFKRKTLVLLGAHGVGRRHIKNTLITKHPDRFAYPIPHTTRPPKKDEENGKNYYFVSHDQMMQDISNNEYLEYGSHEDAMYGTKLETIRKIHEQGLIAILDVEPQALKVLRTAEFAPFVVFIAAPTITPGLNEDESLQRLQKESDVLQRTYAHYFDLTIINNEIDETIRHLEEAVELVCTAPQWVPVSWVY

Target: HA-tagged Synaptic Cell Adhesion Molecule 1 (HA-SynCAM1), full length (mouse)
Sequence (Q8R5M8 48-456): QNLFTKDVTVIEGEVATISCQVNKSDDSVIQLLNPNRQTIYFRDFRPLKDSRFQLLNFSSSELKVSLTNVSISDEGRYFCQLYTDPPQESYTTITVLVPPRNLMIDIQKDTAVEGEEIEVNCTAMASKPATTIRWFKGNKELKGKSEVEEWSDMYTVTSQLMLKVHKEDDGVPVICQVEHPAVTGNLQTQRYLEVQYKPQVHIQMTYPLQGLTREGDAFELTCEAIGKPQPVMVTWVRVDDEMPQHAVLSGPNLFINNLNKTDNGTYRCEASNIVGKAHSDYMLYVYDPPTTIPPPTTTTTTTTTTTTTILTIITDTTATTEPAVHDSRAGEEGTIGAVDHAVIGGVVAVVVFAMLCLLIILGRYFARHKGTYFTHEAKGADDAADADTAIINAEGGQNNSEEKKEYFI
Experiment: Cell Adhesion Molecule / Receptor Recruitment Assay

Molecule	% increase in fluorescence intensity at microspheres relative to background [%]
protein 4.1N, GFP tagged (4.1N-GFP) (from UniProt Q9Z2H5 1-879) (natural protein)	100
GFP-tagged erythrocyte protein band 4.1-like 3 (protein 4.1B), full length (4.1B-GFP) (natural protein)	114
Syntenin1-GFP (from UniProt O00560 1-298) (natural protein)	91.8
B1	123
